This assay addresses T1, PUM1 (human, UniProt Q14671-3 2-1188, limits assumed).
T1 construct: also called NP_00108494.1 (+1)
T1 sequence (looked up): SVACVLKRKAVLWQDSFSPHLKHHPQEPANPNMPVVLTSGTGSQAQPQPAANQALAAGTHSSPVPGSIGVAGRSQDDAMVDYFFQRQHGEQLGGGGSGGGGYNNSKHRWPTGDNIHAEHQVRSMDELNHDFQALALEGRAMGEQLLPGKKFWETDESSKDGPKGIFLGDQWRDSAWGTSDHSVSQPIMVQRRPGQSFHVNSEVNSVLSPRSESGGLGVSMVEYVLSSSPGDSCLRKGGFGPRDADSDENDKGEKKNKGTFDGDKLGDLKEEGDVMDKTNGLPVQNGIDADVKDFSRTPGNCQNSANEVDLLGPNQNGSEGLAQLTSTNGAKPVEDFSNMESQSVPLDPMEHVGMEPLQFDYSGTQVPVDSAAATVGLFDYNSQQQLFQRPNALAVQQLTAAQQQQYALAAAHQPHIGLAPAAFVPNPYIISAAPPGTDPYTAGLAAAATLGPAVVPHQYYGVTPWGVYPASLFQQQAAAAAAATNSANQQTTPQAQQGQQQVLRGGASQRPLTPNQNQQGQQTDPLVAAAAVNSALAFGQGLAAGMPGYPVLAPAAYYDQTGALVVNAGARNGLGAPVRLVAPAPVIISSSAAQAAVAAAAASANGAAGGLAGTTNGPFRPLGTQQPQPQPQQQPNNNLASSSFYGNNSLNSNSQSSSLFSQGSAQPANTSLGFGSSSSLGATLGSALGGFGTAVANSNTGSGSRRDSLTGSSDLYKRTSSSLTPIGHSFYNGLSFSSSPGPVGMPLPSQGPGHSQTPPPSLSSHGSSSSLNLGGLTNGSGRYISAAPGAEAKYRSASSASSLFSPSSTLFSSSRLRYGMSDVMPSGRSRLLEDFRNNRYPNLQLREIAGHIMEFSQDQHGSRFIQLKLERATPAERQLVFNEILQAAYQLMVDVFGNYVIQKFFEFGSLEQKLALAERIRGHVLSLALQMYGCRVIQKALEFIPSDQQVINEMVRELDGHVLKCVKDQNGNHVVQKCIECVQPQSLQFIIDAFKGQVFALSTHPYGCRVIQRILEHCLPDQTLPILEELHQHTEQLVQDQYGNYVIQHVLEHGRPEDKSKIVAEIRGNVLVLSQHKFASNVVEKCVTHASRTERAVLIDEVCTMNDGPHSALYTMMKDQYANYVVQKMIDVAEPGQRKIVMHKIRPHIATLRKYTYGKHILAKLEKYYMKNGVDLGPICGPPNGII
In words: co-IP, anti-FLAG, lysate of cells with N-FLAG B3GNT2; mass spectrometry.

B1: N-terminal FLAG tagged B3GNT2 (enzyme, human, UniProt Q9NY97 1-397, looked up)
chain: MSVGRRRIKLLGILMMANVFIYFIMEVSKSSSQEKNGKGEVIIPKEKFWKISTPPEAYWNREQEKLNRQYNPILSMLTNQTGEAGRLSNISHLNYCEPDLRVTSVVTGFNNLPDRFKDFLLYLRCRNYSLLIDQPDKCAKKPFLLLAIKSLTPHFARRQAIRESWGQESNAGNQTVVRVFLLGQTPPEDNHPDLSDMLKFESEKHQDILMWNYRDTFFNLSLKEVLFLRWVSTSCPDTEFVFKGDDDVFVNTHHILNYLNSLSKTKAKDLFIGDVIHNAGPHRDKKLKYYIPEVVYSGLYPPYAGGGGFLYSGHLALRLYHITDQVHLYPIDDVYTGMCLQKLGLVPEKHKGFRTFDIEEKNKNNICSYVDLMLVHSRKPQEMIDIWSQLQSAHLKC
notes: Overexpressed in cells and pulled down from the lysate with mouse anti-FLAG antibody; also called N-FLAG B3GNT2; N-term FLAG; not shown: N-terminal FLAG tag
Turning to B1, the “co-IP mass spectrometry count” value is 0.

The values above are taken from patent publication US20240261333A1 (published 2024).
